Assay results taken from publication PMC5004176, “The antifungal plant defensin AtPDF2.3 from Arabidopsis thaliana blocks potassium channels” (Scientific Reports, 2016).
Like-named read-outs stand apart in the source and are kept apart here. Ends that are not written are not given here.

Assays:
Kv1.2 channels = test: Two-electrode voltage-clamp on Kv1.2 expressed in X. laevis oocytes; conditions: for IC50: read-out: IC50 for Kv1.2, two-electrode voltage-clamp, X. laevis oocytes, concentration-response curve fitted with Hill equation, mean ± standard error, n ≥ 3
Protocol: (§1) For the expression of the voltage-gated potassium channels (rKv1.1, rKv1.2, hKv1.3, rKv1.4, rKv1.5, rKv1.6, Shaker IR, hKv3.1, rKv4.3, and hERG) in Xenopus laevis oocytes, the linearized plasmids were transcribed using the T7 or SP6 mMESSAGE-mMACHINE transcription kit (Ambion). The harvesting of stage V–VI oocytes from an anaesthetized female X. laevis frog was previously described[59]. Oocytes were injected with 50 nL of cRNA at a concentration of 1 ng/nL using a micro-injector (Drummond Scientific, USA). The oocytes were incubated in a solution containing (in mM): NaCl, 96; KCl, 2; CaCl2, 1.8; MgCl2, 2 and HEPES, 5 (pH 7.4), supplemented with 50 mg/L gentamycin sulfate.
(§2) Two-electrode voltage-clamp recordings were performed at room temperature (18–22 °C) using a Geneclamp 500 amplifier (Molecular Devices, USA) controlled by a pClamp data acquisition system (Axon Instruments, USA). Whole cell currents from oocytes were recorded 1–4 days after injection. Bath solution composition was ND96 (in mM): NaCl, 96; KCl, 2; CaCl2, 1.8; MgCl2, 2 and HEPES, 5 (pH 7.4) or HK (in mM): NaCl, 2; KCl, 96; CaCl2, 1.8; MgCl2, 2 and HEPES, 5 (pH 7.4). Voltage and current electrodes were filled with 3 M KCl. Resistances of both electrodes were kept between 0.7 and 1.5 MΩ. The elicited currents were filtered at 0.5 kHz and sampled at 2 kHz (for potassium currents) or filtered at 2 kHz and sampled at 20 kHz (for sodium currents) using a four-pole low-pass Bessel filter. Leak subtraction was performed using a -P/4 protocol. Kv1.1–Kv1.6 and Shaker currents were evoked by 250 ms depolarizations to 0 mV followed by a 250 ms pulse to −50 mV, from a holding potential of −90 mV. Current traces of hERG channels were elicited by applying a +40 mV prepulse for 2 s followed by a step to −120 mV for 2 s. […] In order to investigate the current–voltage relationship, current traces were evoked by 10 mV depolarization steps from a holding potential of −90 mV. To assess the concentration dependency of the toxin induced inhibitory effects, a concentration–response curve was constructed, in which the percentage of current inhibition was plotted as a function of toxin concentration. Data were fitted with the Hill equation: y = 100/[1 + (IC50/[toxin])^h], were y is the amplitude of the toxin-induced effect, IC50 is the toxin concentration at half-maximal efficacy, [toxin] is the toxin concentration, and h is the Hill coefficient. GV curves were calculated from IV relationships as follows: gK = IK/(Em−EK) with EK = (RT/zF)ln[K #0]o/[K #0]i. In these equations gK represents the conductance, IK the potassium current, Em the membrane potential, EK the reversal potential, R the gas constant (8.31 J/K mol), T the temperature, z the charge of the ion (for K+ ions: z = 1), F the Faraday’s constant (96.500 C/mol), [K #0]o and [K #0]i respectively are the extracellular and intracellular K+ ion concentrations. The values of IK or gK were plotted as function of voltage and fitted using the Boltzmann equation: gK/gmax = [1 + exp(Vg−V)/k]−1, were gmax represents maximal gK, Vg is the voltage corresponding to half-maximal conductance, and k is the slope factor. Comparison of two sample means was made using a paired Student’s t test (P < 0.05). All data represent at least three independent experiments (n ≥ 3) and are presented as mean ± standard error.

Kv1.6 channels = test: Two-electrode voltage-clamp on Kv1.6 expressed in X. laevis oocytes; conditions: for IC50: read-out: IC50 for Kv1.6, two-electrode voltage-clamp, X. laevis oocytes, concentration-response curve fitted with Hill equation, mean ± standard error, n ≥ 3
Protocol: as §1, §2

[1] = target: voltage-gated potassium channel rKv1.2 (rat (from the prefix in rKv1.2)) (UniProt P63142)
[2] = target: voltage-gated potassium channel rKv1.6 (rat (from the prefix in rKv1.6)) (UniProt P17659)
[3] = target: voltage-gated potassium channel rKv1.2 (rat (from the prefix in rKv1.2)) (UniProt P63142); remark: listed apart in the source
[4] = target: voltage-gated potassium channel rKv1.6 (rat (from the prefix in rKv1.6)) (UniProt P17659); remark: listed apart in the source

voltage-gated potassium channel rKv1.6 (rat (from the prefix in rKv1.6)), sequence (P17659 whole entry): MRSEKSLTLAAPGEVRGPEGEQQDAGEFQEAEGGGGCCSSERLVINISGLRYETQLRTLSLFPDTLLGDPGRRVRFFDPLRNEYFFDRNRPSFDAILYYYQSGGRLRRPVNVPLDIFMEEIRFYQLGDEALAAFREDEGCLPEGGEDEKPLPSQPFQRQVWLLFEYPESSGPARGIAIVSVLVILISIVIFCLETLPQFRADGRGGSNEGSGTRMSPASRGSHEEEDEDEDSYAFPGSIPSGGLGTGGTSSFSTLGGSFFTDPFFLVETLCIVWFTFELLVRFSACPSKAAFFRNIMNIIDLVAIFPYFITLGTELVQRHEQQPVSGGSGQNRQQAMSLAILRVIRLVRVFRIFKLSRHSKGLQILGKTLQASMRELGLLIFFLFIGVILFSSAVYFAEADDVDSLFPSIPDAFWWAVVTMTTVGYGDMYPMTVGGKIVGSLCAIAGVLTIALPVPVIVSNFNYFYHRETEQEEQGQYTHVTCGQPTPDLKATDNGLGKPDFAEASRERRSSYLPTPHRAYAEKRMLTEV
voltage-gated potassium channel rKv1.2 (rat (from the prefix in rKv1.2)), sequence (P63142 whole entry): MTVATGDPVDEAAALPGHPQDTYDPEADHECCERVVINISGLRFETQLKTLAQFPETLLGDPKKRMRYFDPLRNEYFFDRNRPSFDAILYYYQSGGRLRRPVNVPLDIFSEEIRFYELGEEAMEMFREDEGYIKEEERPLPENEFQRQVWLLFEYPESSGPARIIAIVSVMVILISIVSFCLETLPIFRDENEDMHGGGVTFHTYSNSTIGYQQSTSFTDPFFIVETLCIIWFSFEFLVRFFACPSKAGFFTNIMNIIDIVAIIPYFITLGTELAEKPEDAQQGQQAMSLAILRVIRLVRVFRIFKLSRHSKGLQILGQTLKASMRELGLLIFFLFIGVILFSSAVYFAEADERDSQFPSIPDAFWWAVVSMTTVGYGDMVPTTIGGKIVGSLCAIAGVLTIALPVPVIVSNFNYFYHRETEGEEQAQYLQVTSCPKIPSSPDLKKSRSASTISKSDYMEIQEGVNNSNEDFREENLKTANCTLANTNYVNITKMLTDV

Molecule	IC50 (Kv1.2 channels)	IC50 (Kv1.6 channels)	IC50 of inhibition of Kv1.2 potassium current, two-electrode voltage clamp on X. laevis oocytes, concentration-response curve [3]	IC50 of inhibition of Kv1.6 potassium current, two-electrode voltage clamp on X. laevis oocytes, concentration-response curve [4]	further results
AtPDF2.3 [K33A][G36N]: rAtPDF2.3 variant containing only Asparagine36 (CXN toxin signature) (RTCESKSHRFKGPCVSTHNCANVCHNEGFGGGACRNFRRRCYCTRHC; ends and bridges not checked; cysteine pairing not given here)	1380 ± 133 nM	366 ± 114 nM			
rAtPDF2.3[G36N]: rAtPDF2.3 variant with both Lysine33 and Asparagine36 (KCXN toxin signature) (RTCESKSHRFKGPCVSTHNCANVCHNEGFGGGKCRNFRRRCYCTRHC; ends and bridges not checked; cysteine pairing not given here)	611 ± 91 nM	138 ± 38 nM			fold decrease of Kv1.2 IC50 as compared to rAtPDF2.3 (Kv1.2 channels; ratio of IC50 values): 2.1 fold; fold decrease of Kv1.6 IC50 as compared to rAtPDF2.3 (Kv1.6 channels; ratio of IC50 values): 7.1 fold
rAtPDF2.3[K33A]: rAtPDF2.3 variant with neither Lysine33 nor Asparagine36, devoid of the toxin signature (RTCESKSHRFKGPCVSTHNCANVCHNEGFGGGACRGFRRRCYCTRHC; ends and bridges not checked; cysteine pairing not given here)	2040 ± 383 nM	3500 ± 235 nM			
recombinant Arabidopsis thaliana plant defensin AtPDF2.3 (from UniProt Q9ZUL7 31-77) (peptide)					IC50 of inhibition of Kv1.2 potassium current, two-electrode voltage clamp on X. laevis oocytes, concentration-response curve [1]: 1300 nM; inhibition of the Kv1.2 potassium current by 2 μM rAtPDF2.3 in HK solution [1]: 66%; inhibition of the Kv1.2 potassium current by 2 μM rAtPDF2.3 in ND96 solution (data not shown) [1]: 59%; IC50 of inhibition of Kv1.6 potassium current, two-electrode voltage clamp on X. laevis oocytes, concentration-response curve [2]: 978 nM
RTCESKSHRFKGPCVSTHNCANVCHNEGFGGGACRGFRRRCYCTRHC (not fully specified; cysteine pairing not given here) [rAtPDF2.3[K33A]]			2040 nM	3500 nM	
RTCESKSHRFKGPCVSTHNCANVCHNEGFGGGACRNFRRRCYCTRHC (not fully specified; cysteine pairing not given here) [rAtPDF2.3[K33A][G36N]]			1380 nM	366 nM	
RTCESKSHRFKGPCVSTHNCANVCHNEGFGGGKCRNFRRRCYCTRHC (not fully specified; cysteine pairing not given here) [rAtPDF2.3[G36N]]			611 nM	138 nM	
